Tested on: Oc1ccccc1O
Assay: cells, lysate or membranes
Conditions: catechol 0-150 µM, 35 °C, 50 mM phosphate pH 7.5 (general assay), O2 co-substrate, crude extract
[1] = C-terminally truncated (stop at 289)

Substance	Km [µM]	Vmax [µmol/min/mg]	Km [1] [µM]	Vmax [1] [µmol/min/mg]
C23Owt (catechol 2,3-dioxygenase from Planococcus sp. S5) (Planococcus sp. S5)	97.74 ± 10.91	0.115		
C23Owt (catechol 2,3-dioxygenase from Planococcus sp. S5) (Planococcus sp. S5; C103R)			66.17 ± 9.44	0.104

Reference: PMC3943285, “Activity of a Carboxyl-Terminal Truncated Form of Catechol 2,3-Dioxygenase from Planococcus sp. S5” (The Scientific World Journal, 2014)
